Data reported in the DeepSol protein solubility set.

Experiment: soluble on expression in E. coli; label from the status in PepcDB or PDB records

Q: Which “soluble on expression in E. coli” value does the source give for “MHIDNIENLSDREFDYIVVGGGSAGAAVAARLSEDPAVSVALVEAGPDDRGVPEVLQLDRWMELLESGYDWDYPIEPQENGNSFMRHARAKVMGGCSSHNSCIAFWAPREDLDEWEAKYGATGWNAEAAWPLYKRLETNEDAGPDAPHHGDSGPVHLMNVPPKDPTGVALLDACEQAGIPRAKFNTGTTVVNGANFFQINRRADGTRSSSSVSYIHPIVEQENFTLLTGLRARQLVFDADRRCTGVDIVDSAFGHTHRLTARNEVVLSTGAIDTPKLLMLSGIGPAAHLAEHGIEVLVDSPGVGEHLQDHPEGVVQFEAKQPMVAESTQWWEIGIFTPTEDGLDRPDLMMHYGSVPFDMNTLRHGYPTTENGFSLTPNVTHARSRGTVRLRSRDFRDKPMVDPRYFTDPEGHDMRVMVAGIRKAREIAAQPAMAEWTGRELSPGVEAQTDEELQDYIRKTHNTAYHPVGTVRMGAVEDEMSPLDPELRVKGVTGLRVADASVMPEHVTVNPNITVMMIGERCADLIRSARAGETTTADAELSAALA” here?
A: soluble

Q: Which “soluble on expression in E. coli” value does the source give for “MHIKPIIQGVVARSAHPYGCEQAVLQQIQYVKQANPIKSGPKRVLILGASSGFGLAARIALTFGGAQADTIGVSFERAPSETQTGSAGYYNNLFFKQHAEQAGRIAVNLEGDVFSVDMREQVIEAIETYFEGEVDLIIYSIASGMRRKPRSEKADPEFWRSAIKPIGEAVSGATLLLENDTWIETTLQPASEEEIEGTLRVMGGDDWENWIDTLINAESLAEGCKTIAFSYMGPDVTHPIYLDGTLGRAKIDLHQTSHALNLKLANFDGGAYAVVCKALVTKASVFIPGLSPYLLALYQVMKNKGTHEGCIEQMQRLFSDKLYGHSRIPLDSERLIRMDDWEMNPDTQVQVRERLQQMNASNFQQLGDYAGFKREFMQLNGFEFDQIDYSQSV” here?
A: not soluble

Q: For “MHIPENLYVVGTMNIADRSLALVDLALRRRFAFVGLEPRLGQVWRDWVVKECAVDPGLVADIERRIAELNDQIAADARLGKQFRIGHSYVTPAHRLEAGDTKKWFLQVVETEIGPLLDEYWFDAPDEAQKAIARLTQGLEHHHHHH”, which “soluble on expression in E. coli” value is on record?
A: not soluble

Q: For “MHIQIDGIPIEILRKPIKNLNLRIYPPDGLVKVSVPLKYSEQLIKQQLQEKSKWIRAQCEQIRARSFYREPSLQTGATIPFKGKSYLLIVEEHYGPSQILIKNELIYCYTKPDLTPQQKQNILDRWYRKEMNLVIPRLIQQWEAIMKVKINQWGIKKMKTRWGSCNPRAQRIWLNLNLIKKPLECLEYVLVHEMVHILEASHNKRFYALMTQFMPKWQEYQRILEGTPNASTFARLEHHHHHH”, which “soluble on expression in E. coli” value is on record?
A: not soluble

Q: Which “soluble on expression in E. coli” value does the source give for “MHITNRSHLADRYGKRTSAEFLLHERPILSFPISLAAIPKEARYLSWELIDYDTIPLIGFPFIHWLAANVPVTNEIPEDFSRTALKPTIQGKNSLASPLGKQMIPALATETLPELTERYLGLSPRSGVHTYTLYVYTTKNPLNLKEGFFANELHQALNDQLLAKAKFEFLY” here?
A: not soluble

Q: Which “soluble on expression in E. coli” value does the source give for “MHKRATSPLSAARTRRKPHGWKKREDDGVGGRFLSIGECMVELSQAGNGLLRKGFAGDTFNAAWYARACLPQDWSVDYFTALGDDPLSEDMLAFIAEAGIGTEKIRRIKGGTPGLYLINLKDGERTFSYWRNAAAARQLAADADHLRKTVESADVVYFSGITLAILASAHDVDTFLAELRRARAAGKLVVFDPNIRPRLWADRDVMLETISNGARAATLVMPSFDDEASHFGDVSVEATIARYRSLGVENIVVKDGAKGATLDFGGSRSHAPAEKAVDVVDTTSAGDSFNGAFLARYVTGSSPEEAATFAARAAATVIGHHGALISPELLPLVG” here?
A: not soluble

Q: With “MHKSNNKIRQRIIIKLSGAGLTKENSQPFSNDFFETIINQLKVLKESYQVGIVIGGGNIIRGNNCQEFNIAEYHGHQLGIIATVVNGYFLKAKLDAHNLKSALLSAISCPSLAVQILSQQTIDKAFEENDFVIFSGGTGNPYFSTDTALALRAVQTKAVAILIGKNGVDGVYTADPKKDKNATFLPTLNYDHAIKNDLKIMDITAFTMCKENNLKIIIFNINAENALLDALNKKGRFTIIENNLEHHHHHH” as the sequence, how does the “soluble on expression in E. coli” value read?
A: soluble

Q: For “MHNFIYITAPSLEEAERIAKRLLEKKLAACVNIFPIKSFFWWEGKIEAATEFAMIVKTRSEKFAEVRDEVKAMHSYTTPCICAIPIERGLKEFLDWIDETVE”, which “soluble on expression in E. coli” value is on record?
A: soluble

Q: Which “soluble on expression in E. coli” value does the source give for “MHNIYFYKDKNGNEPVFDYMRELTSKKGKDSRIKLNKINDYIELLSQHGTRAGEPYIKHLDAEIWELRPLRDRILFVAWMDGSFVLLHHFMKRTQKTPKREIEQAKRELADLKERGLDNEK” here?
A: not soluble

Q: For “MHNQAPIQRRKSTRIYVGNVPIGDGAPIAVQSMTNTRTTDVEATVNQIKALERVGADIVRVSVPTMDAAEAFKLIKQRVNVPLVADIHFDYRIALKVAEYGVDCLRINPGNIGNEERIRMVVDCARDKNIPIRIGVNAGSLEKDLQEKYGEPTPQALLESAMRHVDHLDRLNFDQFKVSVKASDVFLAVESYRLLAKQIDQPLHLGITEAGGARSGAVKSAIGLGLLLSEGIGDTLRVSLAADPVEEIKVGFDILKSLRIRSRGINFIACPTCSRQEFDVIGTVNALEQRLEDIITPMDVSIIGCVVNGPGEALVSTLGVTGGNKKSGLYEDGVRKDRLDNNDMIDQLEARIRAKASQLDEARRIDVQQVGKIITLEHHHHHH”, which “soluble on expression in E. coli” value is on record?
A: not soluble

Q: Which “soluble on expression in E. coli” value does the source give for “MHPLLRRLDLNLLLVFDALYRHRNVGTAASELAISASAFSHALGRLRQGLDDELFLRQGNRMQPTQRAEHLAAAVAAALRALGEGLEEWRPFVPGQSQRTFVFAATDYTAFALLPPLMNRLQHSAPGVRLRLVNAERKLSVEALASGRIDFALGYDEEHERLPEGIQAHDWFADRYVVVARRDHPRLAGAPTLEGYLAERHAVVTPWNEDSGVIDRLLARSGLRREVAVQLPTVLAALFLAGSTDFLLTAPRHAARALAEAAGLALYPAPFDIPPYVLRLYSHVQHVGRDAHAWMIGQLKGLDISRTG” here?
A: soluble

Q: For “MHPTGPQLGPDVLFRESKMKVTLTFNEQRRAAYRQQGLWGDASLADYWQQTARAMPDKIAVVDNHGASYTYSALDHAASCLANWMLAKGIESGDRIAFQLPGWCEFTVIYLACLKIGAVSVPLLPSWREAELVWVLNKCQAKMFFAPTLFKQTRPVDLILPLQNQLPQLQQIVGVDKLAPATSSLSLSQIIADNIPLTTAITTHGDELAAVLFTSGTEGLPKGVMLTHNNILASERAYCARLNLTWLDVFMMPAPLGHATGFLHGVTAPFLIGARSVLLDIFTPDACLALLEQQRCTCMLGATPFVYDLLNLLEKQPADLSALRFFLCGGTTIPKKVARECQQRSIKLLSVYGSTESSPHAVVNLDNSLSRFMHTDGYAAAGVEIKVVDDARKTLPPGCEGEEASRGPNVFMGYFDEPELTARALDEEGWYYSGDLCRMDEAGYIKITGRKKDIIVRGGENISSREVEDILLQHPKIHDACVVAMPDERLGERSCAYVVLKAPHHSLSLEEMAAFFSRKRVAKYKYPEHIVVIEKLPRTASDKIQKFLLRKDIIRRLTQDVCEEIE”, which “soluble on expression in E. coli” value is on record?
A: not soluble

Q: Which “soluble on expression in E. coli” value does the source give for “MHPVILFDGDCLFCHASAHWIAARDRQAVFRFAAQQSIVGQALLAKQEMSAEDSVVLIENGCCYVKSEAVLRIGRRLAWPWNWLAAAGFLIPRLLRDHMYDAIANRRHRLVPKRDHCQLPSPELRARFLDELPQ” here?
A: not soluble

Q: For “MHRGITVQTSDLDDGVTGVVGKVYIEASPKHVWAAITDYNNHKSFVPKLIDSGLISDNGREQVMFERGKTGIFLFRKTVYIKLSLQGEYPKRLDFHQIEGDFKVYEGDWLIERASDGKGSILTFRAKIKPDFFAPAMFVRKVQQNDLPMVLAAMKKRAESAEGSLEHHHHHH”, which “soluble on expression in E. coli” value is on record?
A: not soluble

Q: Which “soluble on expression in E. coli” value does the source give for “MHRRGVGAGAIAKKKLAEAKYKERGTVLAEDQLAQMSKQLDMFKTNLEEFASKHKQEIRKNPEFRVQFQDMCATIGVDPLASGKGFWSEMLGVGDFYYELGVQIIEVCLALKHRNGGLITLEELHQQVLKGRGKFAQDVSQDDLIRAIKKLKALGTGFGIIPVGGTYLIQSVPAELNMDHTVVLQLAEKNGYVTVSEIKASLKWETERARQVLEHLLKEGLAWLDLQAPGEAHYWLPALFTDLYSQEITAEEAREALP” here?
A: soluble

Q: With “MHSGDFMSVSTPTRDDFAALLEESFASNDLAEGYVAKGIVTAIEKDVAIVDVGLKVEGRVPLKEFGAKSKDGTLKVGDEVEVYVERIENALGEAVLSREKARREESWVKLEAKFEAGERVEGVIFNQVKGGFTVDLDGAVAFLPRSQVDIRPIRDVTPLMHNPQPFEILKMDKRRGNIVVSRRTVLEESRAEQRSEIVQNLEEGQVVDGVVKNITDYGAFVDLGGIDGLLHVTDMAWRRVNHPSEILNIGQQVKVQIIRINQETHRISLGMKQLESDPWDGISAKYPVGKKISGTVTNITDYGAFVELEPGIEGLIHISEMSWTKKNVHPGKILSTSQEVDVVVLEVDPSKRRISLGLKQTLENPWQAFAFSHPAGTEVEGEVKNKTEFGLFIGLEGDVDGMVHLSDLDWNRPGEQVIEEFNKGDVVKAVVLDVDVEKERISLGIKQLGKDAVGEAATSGDLRKNAVVSCEVIAVNDGGVEVKLVNHEDITSFIRRNDLARDRDDQRPERFAVGQVFDARVVNFSKKDRKVMLSIKALEIAEEKEAVAQFGSSDSGASLGDILGAALKNRGELEHHHHHH” as the sequence, how does the “soluble on expression in E. coli” value read?
A: soluble

Q: With “MHTQVHTARLVHTADLDSETRQDIRQMVTGAFAGDFTETDWEHTLGGMHALIWHHGAIIAHAAVIQRRLIYRGNALRCGYVEGVAVRADWRGQRLVSALLDAVEQVMRGAYQLGALSSSARARRLYASRGWLPWHGPTSVLAPTGPVRTPDDDGTVFVLPIDISLDTSAELMCDWRAGDVW” as the sequence, how does the “soluble on expression in E. coli” value read?
A: soluble

Q: For “MIAKTDSDIRHVTPSGGNVFADLGFHKQDAEKFYADSLNEIENTLAIKQQLMEEITLWITQNQMKQAEVATVLHISRPRVSDVVNKKCSKFTIDALVNMLSRIGKPVRVMVGP”, which “soluble on expression in E. coli” value is on record?
A: not soluble

Q: For “MICFRTAFILILGVVIGTTAKRHNVRRHVNGKWTDKHCEEPPSLKEDLATWMQISMSGQFDDTALEEWSTNGKEPEICEKSPKADGVTTIMERALCPWDSRVNYQESREPKLIAESVCLCRKSRGSTGAFCMPIVRKVPILRRVSCDRSTGLWNYVRSTELITVGCHSVLPRTQRAARLAHLSSSRIIV”, which “soluble on expression in E. coli” value is on record?
A: not soluble

Q: Which “soluble on expression in E. coli” value does the source give for “MICPRCADAHIELMATSPVKGVWTVYQCQHCLYTWRDTEPLRRTSREHYPQAFRMTQKDIDDAPMVPSIPPLLAEDKR” here?
A: not soluble

Q: Which “soluble on expression in E. coli” value does the source give for “MIDADAIKMRILSMMEQLGMTPSAFADRAGISRSALTHITSGRNKVTLDMINKIMQGFDEWSAEWIIFGKGPQQSNKTAFENDLFSYSSVPEQELHTRTKDNCGIQSPSGRLEPEIKIVQMPAKQIERITVFYTDGSYQEFRSNKE” here?
A: not soluble

Q: With “MIDERDKIILEILEKDARTPFTEIAKKLGISETAVRKRVKALEEKGIIEGYTIKINPKKLGYSLVTITGVDTKPEKLFEVAEKLKEYDFVKELYLSSGDHMIMAVIWAKDGEDLAEIISNKIGKIEGVTKVCPAIILEKLK” as the sequence, how does the “soluble on expression in E. coli” value read?
A: soluble

Q: Which “soluble on expression in E. coli” value does the source give for “MIDPVGLPDTFVRIVLVGSGNLATQTALALSEAASPPVQVWSRNAEHAERLASMLPGATATDRTEELLCDAELYLLAVSDHALESVAATLPPTSGIWAHTAGSMPMDTLRPYHAQIGVFYPLQTFSRERRVDYSSIPIYIEGNDESVVRLLESVARLISRNVLRCTSEQRLYLHLAAVFACNFTNHLYALSEQMLAAHGLPPRSLAPLIAETAAKVQEMSATEAQTGPAKRDDTNTLQKHLGLLNPYPDWQEIYRILSDSIRKMYGPKEQ” here?
A: not soluble
